*1 amine or outer side, *2 acyl side, *3 side chain or, on linkers, in order; H or OH if unused. Side-chain parts run from the residue outwards. The star is where a group is joined. C18 diacid = O=C(O)CCCCCCCCCCCCCCCCC(=O)*; γGlu = O=C(O)[C@H](CCC(=O)[*:2])N[*:1]; Isovaleryl = CC(C)CC(=O)*; AEEA = NCCOCCOCC(=O)O
T1: human neuropeptide Y2 receptor (human, UniProt P49146 1-381)
T1 construct: whole, on cells; also called hNPY2 receptor; hNPY2-R
T1 sequence (looked up): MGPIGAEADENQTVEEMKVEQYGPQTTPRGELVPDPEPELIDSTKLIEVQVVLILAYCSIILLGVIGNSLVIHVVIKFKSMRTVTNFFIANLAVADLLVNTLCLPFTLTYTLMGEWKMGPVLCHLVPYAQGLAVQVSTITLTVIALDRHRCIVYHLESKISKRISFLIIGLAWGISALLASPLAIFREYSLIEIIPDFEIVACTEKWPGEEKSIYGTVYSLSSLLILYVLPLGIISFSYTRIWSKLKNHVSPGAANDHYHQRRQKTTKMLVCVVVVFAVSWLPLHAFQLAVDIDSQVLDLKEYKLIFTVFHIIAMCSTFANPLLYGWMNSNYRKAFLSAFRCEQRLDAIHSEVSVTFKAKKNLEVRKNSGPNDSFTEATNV


Molecular target: T1, human neuropeptide Y2 receptor
Test: radioligand competition (125I-PYY(1-36)), hNPY2R membranes
Summary of the method: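 Commercial human Y2 receptor membranes (0.5 μg protein/well) were incubated with peptide for 2 h at room temperature in 50 mM HEPES, 5 mM MgCl₂, 1 mM CaCl₂, pH 7.4, with 0.2% ovalbumin. Bound radioligand was separated on PEI-soaked GF/C filters and counted by scintillation, and IC₅₀ came from nonlinear sigmoidal regression.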

Ki [nM] | Binder
4.44 | Isovaleryl-APEK([AEEA-AEEA-γGlu-C18 diacid])PEEEASPEELQRYYVSLRHYYNWITRQRY-NH2 (SMILES CC[C@H](C)[C@H](NC(=O)[C@H](Cc1c[nH]c2ccccc12)NC(=O)[C@H](CC(N)=O)NC(=O)[C@H](Cc1ccc(O)cc1)NC(=O)[C@H](Cc1ccc(O)cc1)NC(=O)[C@H](Cc1c[nH]cn1)NC(=O)[C@H](CCCNC(=N)N)NC(=O)[C@H](CC(C)C)NC(=O)[C@H](CO)NC(=O)[C@@H](NC(=O)[C@H](Cc1ccc(O)cc1)NC(=O)[C@H](Cc1ccc(O)cc1)NC(=O)[C@H](CCCNC(=N)N)NC(=O)[C@H](CCC(N)=O)NC(=O)[C@H](CC(C)C)NC(=O)[C@H](CCC(=O)O)NC(=O)[C@H](CCC(=O)O)NC(=O)[C@@H]1CCCN1C(=O)[C@H](CO)NC(=O)[C@H](C)NC(=O)[C@H](CCC(=O)O)NC(=O)[C@H](CCC(=O)O)NC(=O)[C@H](CCC(=O)O)NC(=O)[C@@H]1CCCN1C(=O)[C@H](CCCCNC(=O)COCCOCCNC(=O)COCCOCCNC(=O)CC[C@H](NC(=O)CCCCCCCCCCCCCCCCC(=O)O)C(=O)O)NC(=O)[C@H](CCC(=O)O)NC(=O)[C@@H]1CCCN1C(=O)[C@H](C)NC(=O)CC(C)C)C(C)C)C(=O)N[C@H](C(=O)N[C@@H](CCCNC(=N)N)C(=O)N[C@@H](CCC(N)=O)C(=O)N[C@@H](CCCNC(=N)N)C(=O)N[C@@H](Cc1ccc(O)cc1)C(N)=O)[C@@H](C)O) [Compound 44]
3.97 | Isovaleryl-APEK([AEEA-AEEA-γGlu-C18 diacid])PEEEASPESLQRYYVSLRHYYNWLTRQRY-NH2 (SMILES CC(C)CC(=O)N[C@@H](C)C(=O)N1CCC[C@H]1C(=O)N[C@@H](CCC(=O)O)C(=O)N[C@@H](CCCCNC(=O)COCCOCCNC(=O)COCCOCCNC(=O)CC[C@H](NC(=O)CCCCCCCCCCCCCCCCC(=O)O)C(=O)O)C(=O)N1CCC[C@H]1C(=O)N[C@@H](CCC(=O)O)C(=O)N[C@@H](CCC(=O)O)C(=O)N[C@@H](CCC(=O)O)C(=O)N[C@@H](C)C(=O)N[C@@H](CO)C(=O)N1CCC[C@H]1C(=O)N[C@@H](CCC(=O)O)C(=O)N[C@@H](CO)C(=O)N[C@@H](CC(C)C)C(=O)N[C@@H](CCC(N)=O)C(=O)N[C@@H](CCCNC(=N)N)C(=O)N[C@@H](Cc1ccc(O)cc1)C(=O)N[C@@H](Cc1ccc(O)cc1)C(=O)N[C@H](C(=O)N[C@@H](CO)C(=O)N[C@@H](CC(C)C)C(=O)N[C@@H](CCCNC(=N)N)C(=O)N[C@@H](Cc1c[nH]cn1)C(=O)N[C@@H](Cc1ccc(O)cc1)C(=O)N[C@@H](Cc1ccc(O)cc1)C(=O)N[C@@H](CC(N)=O)C(=O)N[C@@H](Cc1c[nH]c2ccccc12)C(=O)N[C@@H](CC(C)C)C(=O)N[C@H](C(=O)N[C@@H](CCCNC(=N)N)C(=O)N[C@@H](CCC(N)=O)C(=O)N[C@@H](CCCNC(=N)N)C(=O)N[C@@H](Cc1ccc(O)cc1)C(N)=O)[C@@H](C)O)C(C)C) [Compound 45]

Reference: patent US20210139548A1 (published 2021)
